In paper PMC4980431, “Ctf4 Is a Hub in the Eukaryotic Replisome that Links Multiple CIP-Box Proteins to the CMG Helicase” (Molecular Cell, 2016):
Entries after “also recorded” stand apart in the source; their conditions may differ.

B1: Ctf4-4E: Ctf4 L867E-A871E-A897E-I901E, mutated binding site for type I CIP-boxes (protein, UniProt Q01454 2-927, looked up, variant L867E A871E A897E I901E)
DNA polymerase alpha-binding …: VSVIDKLVFDFGGKTLVSLAPDNNTLCVANKNGLTKILKTNNPEEEPETLDSSKLVSSIKCYSNSHFLMTTMQGDALRYNIDSSQEELLARFALPLRDCCVIHSGKMAVFGGDDLELILLELDDETHKKHAIKIDEQVSQISYNSQMNILAVSMINGKVQIFSLTSTIPNKVHELNDYIVANSYDDTHRDKILSNMMDDIDKDNDNDLSETADPDENNVADPEFCAANRICTRVAWHPKGLHFALPCADDTVKIFSIKGYSLQKTLSTNLSSTKAHFIDLQFDPLRGTYIAAVDLNNKLTVWNWETSEIHYTREFKRKITNIAWKIQADSKTLDLVLGTWSGSIAIVQNLAESVVSNIPDQSVAESSTKHGLFVDSESDLENLEGNDDINKSDKLFSDITQEANAEDVFTQTHDGPSGLSEKRKYNFEDEEDFIDDDDGAGYISGKKPHNEHSYSRVHKTHSFPISLANTGKFRYMPFSPAGTPFGFTDRRYLTMNEVGYVSTVKNSEQYSITVSFFDVGRFREYHFEDLFGYDLCFLNEKGTLFGQSKTGQIQYRPHDSIHSNWTKIIPLQAGERITSVAATPVRVIVGTSLGYFRSFNQFGVPFAVEKTSPIVALTAQNYRVFSVHYSQFHGLSYSLSELGTSSKRYYKRECPLPMSLPNINSDMKKDANLDYYNFNPMGIKSLFFSSYGDPCIFGSDNTLLLLSKWRSPEESKWLPILDSNMEIWKMSGGKETTDIHVWPLALAYDTLNCILVKGKHIWPEFPLPLPSEMEIRMPVFVKSKLLEENKAILNKKNEIGADTEAEEGEEDKEIQIPVSMAAEEEYLRSKVLSELLTDTLENDGEMYGNENEVLAALNGAYDKALERLFESACSDQNVEKALSLAHELKQDRALTEAVKESERAELPSLVKKINNIREARYEQQLK
B2: Ctf4-3E: Ctf4 with M731, I740, and L756 mutated to glutamate; disrupts binding site for type II CIP-box proteins (protein)
chain: MVSVIDKLVFDFGGKTLVSLAPDNNTLCVANKNGLTKILKTNNPEEEPETLDSSKLVSSIKCYSNSHFLMTTMQGDALRYNIDSSQEELLARFALPLRDCCVIHSGKMAVFGGDDLELILLELDDETHKKHAIKIDEQVSQISYNSQMNILAVSMINGKVQIFSLTSTIPNKVHELNDYIVANSYDDTHRDKILSNMMDDIDKDNDNDLSETADPDENNVADPEFCAANRICTRVAWHPKGLHFALPCADDTVKIFSIKGYSLQKTLSTNLSSTKAHFIDLQFDPLRGTYIAAVDLNNKLTVWNWETSEIHYTREFKRKITNIAWKIQADSKTLDLVLGTWSGSIAIVQNLAESVVSNIPDQSVAESSTKHGLFVDSESDLENLEGNDDINKSDKLFSDITQEANAEDVFTQTHDGPSGLSEKRKYNFEDEEDFIDDDDGAGYISGKKPHNEHSYSRVHKTHSFPISLANTGKFRYMPFSPAGTPFGFTDRRYLTMNEVGYVSTVKNSEQYSITVSFFDVGRFREYHFEDLFGYDLCFLNEKGTLFGQSKTGQIQYRPHDSIHSNWTKIIPLQAGERITSVAATPVRVIVGTSLGYFRSFNQFGVPFAVEKTSPIVALTAQNYRVFSVHYSQFHGLSYSLSELGTSSKRYYKRECPLPMSLPNINSDMKKDANLDYYNFNPMGIKSLFFSSYGDPCIFGSDNTLLLLSKWRSPEESKWLPILDSNMEIWKESGGKETTDEHVWPLALAYDTLNCIEVKGKHIWPEFPLPLPSEMEIRMPVFVKSKLLEENKAILNKKNEIGADTEAEEGEEDKEIQIPVSMAAEEEYLRSKVLSELLTDTLENDGEMYGNENEVLAALNGAYDKALLRLFASACSDQNVEKALSLAHELKQDRALTAAVKISERAELPSLVKKINNIREARYEQQLK
B3: tagged form of Tof2: tagged form of Tof2 expressed in budding yeast cells (protein)
chain: MIKMWRLQIVLVPPSAQDIITFLEARLNTPQSVSPMVQYNEDIITHNNSINNCSDPSPTSPSSQNSIQSNRSSDFINYLPNCKKFLHFTDGDNTLLQLSNEILTKFDRLYPNFKESIEIVSLQDRHGCDLDSEFIIKDVFENDGVVLVILKDELDWSRNQHISLLQLARQRRRQDNKPSTKSIVTEKRKKISKEDLSSISNKDTMHLIAKSSLKNNFINKSRVSTPLMNEILPLASKYDALNKEKCPMPLTSTVVASNVHKDVKDHARAKEGVVTQGSDNNKENIPSSTQQQKNDGAKRAESKDLDLLRNSSEDADYEPADENSPQISFDSIDTDFQLSTTSHTNSDMHIQYSNPSSGAHSPRKSSLEIKVQNKKGDDLPLNDKDIGENCRRIEAFSDEEDFNETDNDRADSFINNSKKASMGFRDINSDLDSVSFNSDIENAVQSTQSTKNVVSPPFFPEKELNNRLHQSQGKEALFRLVEKEFPDKSLGAASSTSHAKDVKIQETIRKLNRFKPTGETKVQKRNSITEPYYGKFGIMKKDKPKSITSKGVSLETKHFDDPNTIISGEKFAKFGKIKVKRKTDDVGSKVIEFKRKRNMGNRSLKDIFANAGKPPNAASTIKVVKLMRDPVDNSKDKVEATSNSTAQEQEQVSPKLPVMNSTPGKRKNGQAIPSSLERTPQLKKVKVTRSHSSPSSSSSMSLESSLDSSSSDDSDDDSDSRNVQVKKINFKTSHGPAGNSNGKPMLDVDDNEINTKKYQTPKYVESDEDDQ
modifications: left off: ProteinA, end not stated, kept
notes: tagged form of Tof2 expressed in budding yeast cells

Columns and labels:
[1] = target: Pol1 CIP-box (Saccharomyces cerevisiae) (UniProt P13382); details: cited from earlier work
[2] = target: Sld5 CIP-box (Saccharomyces cerevisiae) (UniProt Q03406); details: cited from earlier work
[3] = test system: Ctf4; experiment: Co-purification with Ctf4 from yeast cell extracts; assay type: cell-based, budding yeast; details: extracts of yeast cells; S phase and G1-phase; immunoblotting
Protocol: Figure 3 Interaction of the Type I CIP-Box Protein Dna2 with Ctf4 Is Important for rDNA Maintenance (A) GAL-DNA2-9MYC CTF4-TAP (YFV22) and GAL-DNA2-9MYC control cells (YFV21) were grown at 30°C in rich medium containing 2% galactose and then treated as in Figure 2D. The Ctf4-TAP was isolated from cell extracts on magnetic beads coupled to IgG. (B) The smallest fragment of Dna2 that interacted with Ctf4 461–927 in the two-hybrid screen (120–456 shown in red) contains a Ctf4-interacting peptide or CIP-box, closely related to those of Sld5 and Pol1 (upper). […] (C) Mutations in the CIP-box of Dna2 abolished the interaction of full-length Dna2 (1–1,522) or Dna2 120–456 to interact with Ctf4 461–927. (D) When soaked into crystals of Ctf4 471–927, the Dna2 CIP-box binds to the helical region of Ctf4, as previously observed for the CIP-boxes of Pol1 and Sld5 ([Simon et al., 2014]). […]
Figure 4 Tof2 and Dpb2 Define a New Class of Type II CIP-Box Proteins that Bind to a Novel Binding Pocket on the Surface of Ctf4 (A) The smallest fragments of Dpb2 and Tof2 that interacted with Ctf4 461–927 in the two-hybrid screen (shown in red) were each found to contain a putative CIP-box with limited homology to the type I CIP-boxes of Sld5, Dna2, and Pol1. […] The indicated proteins were monitored by immunoblotting. […]

[4] = test system: Dna2; experiment: Yeast two-hybrid with Dna2; assay type: binding, budding yeast
Protocol: (§1) Yeast growth, two-hybrid analysis, and immunoprecipitation experiments were performed as described in detail previously ([Maculins et al., 2015], [Maric et al., 2014]). A two-hybrid screen against amino acids 461–927 of Ctf4 was performed by the company Hybrigenics.

[5] = SEC-MALS; assay type: physicochemical; details: residues 471–927, 2 mg/ml, 20 mM HEPES pH 7.2, 160 mM NaCl
Protocol: 100 μl of Ctf4CTD 4E mutant protein (with mutated binding site for type I CIP-boxes) at a concentration of 2 mg/ml was loaded onto a Superdex S200 HR 10/300 gel-filtration column (GE Healthcare) in 20 mM HEPES pH 7.2, 160 mM NaCl at a flow rate of 0.5 ml/min. The column was controlled using an Äkta Purifier System (GE Healthcare) and was linked to a DAWN 8^+ 8-angle light scattering detector (Wyatt Technology) with a fused silica sample cell using a laser wavelength of 664 nm. The change in the refractive index was detected using an Optilab T-rEX refractometer with extended range (Wyatt Technology) using a wavelength of 658 nm. Data collection and analysis was carried out using the ASTRA6 software package (Wyatt Technology). Molecular weight determination across the sample peak was carried out using a Zimm-plot derived global fitting algorithm with a fit degree of 1 and a dn/dc value of 0.1850 ml/g.

[6] = test system: Pol1; experiment: Yeast two-hybrid with Pol1; assay type: binding, budding yeast
Protocol: as §1

[7] = test system: CMG helicase; experiment: Co-purification with CMG helicase from yeast cell extracts; assay type: cell-based, budding yeast; details: extracts of S phase yeast cells; immunoprecipitation, immunoblotting
Protocol: (D) Cultures of ctf4-4E MCM4-9MYC (YFV13) and MCM4-9MYC control cells (YSS75) were synchronized in G1-phase at 30°C and then released into S phase for 20 min. The Mcm4-9MYC was isolated from cell extracts by immunoprecipitation and the associated proteins monitored by immunoblotting. (E) ctf4-4E is synthetic lethal with mrc1Δ. The cells were processed as in Figure 1A, and the photos in the lower images were taken after 20 hr growth at 30°C (the scale bars represent 50 μm). See also Figure S2. TEXT PRINTED IN THE PICTURE: (C) Ctf4-4E (471-927): 162 kDa
as §1

[8] = test system: Tof2; experiment: Yeast two-hybrid with Tof2; assay type: binding, budding yeast
Protocol: as §1

[9] = test system: Dpb2; experiment: Yeast two-hybrid with Dpb2; assay type: binding, budding yeast
Protocol: as §1

| Molecule | co-purification with Ctf4 (in words) [3] | interaction with Dna2 (in words) [4] | interaction with Pol1 (in words) [6] | association with CMG helicase (in words) [7] | interaction with Tof2 (in words) [8] | interaction with Dpb2 (in words) [9] | further results |
| --- | --- | --- | --- | --- | --- | --- | --- |
| Ctf4 (from UniProt Q01454) | – | – | – | – | – | – | Kd [1]: 25 µM; Kd [2]: 5 µM |
| nuclease/helicase Dna2: multi-functional nuclease/helicase Dna2, expressed in yeast cells | co-purified with Ctf4 | – | – | – | – | – | – |
| B1 | – | unable to interact | does not interact with the amino terminus of Pol1; also recorded: unable to interact | unable to interact with the CMG helicase | still able to interact | still able to interact | oligomeric state (in words) ([5]; SEC-MALS): able to form a trimer in vitro; also recorded: trimeric; molecular mass by SEC-MALS ([5]; printed in Figure 2C): 162 kDa |
| B2 | – | without affecting interaction | without affecting interaction | did not prevent association of Ctf4 with the CMG helicase | abolished interaction | unable to interact | – |
| B3 | co-purified with Ctf4 in both G1-phase and S phase | – | – | co-purified with the CMG helicase during S phase | – | – | – |
